Reference: the supplement of paper PMC9170038

Test system: MS2 coat protein
Assay: apparent KD of MS2 coat protein; designed switch direction (-1 OFF switch, 1 ON switch): -1; higher = weaker reporter binding
Method in brief: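 Stalled E. coli RNA polymerase transcribed designed RNA switches on Illumina chips, which were then titrated with SNAP-549-labelled MS2 coat protein, doubling from 0.7 or 1.5 nM to 3 µM. Steps lasted from 0.8–1.5 h at the lowest concentration to 10–20 min at the highest. The apparent KD is each design's median over clusters of curve-fitted normalised fluorescence.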

[1] = input ligand: microRNA oligo, concentration not stated
[2] = Eterna round: R95, input ligand: FMN 200 uM
[3] = Eterna round: R95, input ligand: microRNA oligo, concentration not stated
[4] = Eterna round: R95, input ligand: none

| Sequence | apparent KD of MS2 coat protein (input ligand: FMN 200 uM) [nM] | apparent KD of MS2 coat protein [1] [nM] | apparent KD of MS2 coat protein (input ligand: none) [nM] | apparent KD of MS2 coat protein [2] [nM] | apparent KD of MS2 coat protein [3] [nM] | apparent KD of MS2 coat protein [4] [nM] |
| --- | --- | --- | --- | --- | --- | --- |
| AUGAGGUUAGGAUAUACAUGAGGAUCACCCAUGUUGGAGAAGGAAAUGUAAGUAGCGAGUAGAAGGAACGGAGC [JR_Exclu3_Sub059] (Eterna round: R96, puzzle: Exclusion 3) | 48.6 | 40.4 | 49 | – | – | – |
| CUUCAAGCACCAGAGCUCACACUUAUACCUGCUCUGGUGACAUGAGGAUCACCCAUGUUUUUUGCCCGUCUUAUCUU [Sensor v3, turn-off variant 2 (MOD of Leso v.2)] (puzzle: Sensor v3, turn-off variant 2) | – | – | – | 92.8 | 276 | 115 |
| UACAGUCAUCCUUAUUGUUACAUGAGGAUCACCCAUGUUAGUAUAAUUAAGUUAUGUAAGUUUGUUGUUCGUUUUAU [JR_STOV1_v2_Sub075] (Eterna round: R97, puzzle: Sensor, turn-off variant 1) | 81.9 | – | 84.6 | – | – | – |
| CCUCCACAUGAGGAUCACCCAUGUCAGGAUAUCGUGUGCGCGUUUUCGGUCUUUCGUGCGAGAAGGGACGUCUG (puzzle: Exclusion 1) | – | – | – | – | 32.6 | – |
| AGGCGCUAGUAGGAUAUCUGGAACGGAUUAUAAAGAGAAGGGCUGACAUGAGGAUCACCCAUGUGACCAAUGCG [Eternabot (L1) Solution 50] (Eterna round: R97, puzzle: Exclusion 6) | 41.2 | – | 50.6 | – | – | – |
| GCUAGUCAUGUCAGGAUAUGCAGAACCUUGGUUCUGCAGAAGGGACAUGAGGAUCACCCAUGUGCCUAACUAGC [Mat - Exclusion 4 - JL Mod - D15] (Eterna round: R97, puzzle: Brourd's mod of Exclusion 4) | 294 | – | 40.3 | – | – | – |
| GCUGGUCGAGGAUAUACAUGAGGAUCACCCAUGUAGAUCAACCAGCGAUAGCUGGAAUGUAGAAGGCGACCAGC [E3/5-A1] (Eterna round: R97, puzzle: Exclusion 3) | 125 | – | 22.9 | – | – | – |
| CAGUACUGAGGAUAUACAUGAGGAUCACCCAUGUGUUCCAGCUAGGAGACUAGCAAAAGUAGAAGGCAGUACUG [salish99_ex3_r3_074] (puzzle: Exclusion 3) | – | – | – | – | 23.5 | – |
| GUAGUUCGAGUUAGGAUAUGAUUAAAAUUCGGAUAUCAGAAGGAACUUGAGGAUCACCCAAGUAUAGAUGAUUC [JR_BMEx4_Sub058] (Eterna round: R97, puzzle: Brourd's mod of Exclusion 4) | 91.6 | – | 38.1 | – | – | – |
| GUAAUUAAUGUAGGAUAUGCAAGGCGAACCUAAGCAGAAGGAACAUGAGGAUCACCCAUGUAUGCGGUCUGCGUACAGAUCGCU [salish99_ExNG1_r4_004] (Eterna round: R96, puzzle: Exclusion NG 1) | 15.1 | 13.3 | 19.7 | – | – | – |
| CUAGUCCGAGGAUAUAUUAAGUGAAACAUGAGGAUCACCCAUGUUAUUUGAUGGAUGAAAAUAGAAGGCGGACUAG [Mat - Exclusion 5 - JL mod - D60] (puzzle: Exclusion 5) | – | – | – | 27.8 | 46.9 | 58.5 |
| CUAUUGGCAGGAUAUGCUUUUUUUGACAUGAGGAUCACCCAUGUGAUGCAUUUUGGGUUUGCAGAAGGGCCUGAGU [JR_E5_Sub037] (puzzle: Exclusion 5) | – | – | – | – | 64.9 | – |
| CCGAAUAAGCAGGAUAUCGAAUCGGAGACGAUUCGAGAAGGGUUAACAUGAGGAUCACCCAUGUUCCUUAACGG [Mat - Exclusion 6 - Eli Mod - D79] (puzzle: Exclusion 6) | – | – | – | – | 17.3 | – |
| GCAGCAUAGAUAACAUACUGUUACAUGAGGAUCACCCAUGUACAGGAUAUGGUCUGGAUUACAGGCCAGAAGGGUACAAGCUGC [Eli exng3 - 021] (Eterna round: R96, puzzle: Exclusion NG 3) | 10.8 | 8.63 | 12.1 | – | – | – |
| UUUUUACAUGAGGAUCACCCAUGUGAGGAUAUGGAGCGCGACCGCGCGGUCGCGUACACCAGAAGGCGCAUGAU [1st #77] (Eterna round: R97, puzzle: Exclusion 1) | 243 | – | 51.7 | – | – | – |
| AAAGAAGAGAGAAAAUAACACAUGAGGAUCACCCAUGUGCGAUGUUGAGGGUGAUACAGGCUUUUUGCUCGUCUUAU (puzzle: Sensor v3, turn-off variant 1) | – | – | – | 311 | 512 | 199 |
| ACAUGAGGAUCACCCAUGUUUGUUGGGUACUCUUUUUACAGCAAGGAUAUGCAUGUUUUUUUUACGCAGAAGGUGCUGGACGUC [JR_ExcNG3_Sub068] (Eterna round: R96, puzzle: Exclusion NG 3) | 381 | 163 | 653 | – | – | – |
| AGUUCUAACACGUUGGUGUUAGUACCAUAAGCUUGUGAUACAUGAGGAUCACCCAUGUCCUCAUAAGCUCGUCUUAU [salish99_TOv2_r3_1001] (Eterna round: R96, puzzle: Sensor v3, turn-off variant 2) | 25.2 | 563 | 27.3 | – | – | – |
| UUUGAAUAGGUAGGAUAUACAUACAUUCCUACAUUACUAACAUGAGGAUCACCCAUGUAUACAUUGUAGAAGGACCAGAUUGAU [JR_ExcNG2_Sub039] (Eterna round: R96, puzzle: Exclusion NG 2) | – | 18.8 | – | – | – | – |
| GGUCGGCGAGGAUAUACAUGAGGAUCACCCAUGUGAUAGAGUGCACGCGUACGUGUACGUAGAAGGCGCUGACG [JL-ex3-3.28 salish99 mod] (puzzle: Exclusion 3) | – | – | – | 26.4 | 13.2 | 12.5 |
| UUAUUAAGUGUGAGGAUAUGCUGGUCCUUGGAUCAGCAGAAGGCACAUGAGGAUCACCCAUGUACAAUAUAUUA [Mat - Exclusion 4 - JL Mod - D30] (Eterna round: R96, puzzle: Brourd's mod of Exclusion 4) | 235 | 30.5 | 42.1 | – | – | – |
| UAUUAGCAAGCAAGAUCCUACAUGAGGAUCACCCAUGUGCUCGUCUUAAACUCAGAAUUACUGAGAGCUCGUCUUAU [Winner reversed engineered 24] (Eterna round: R97, puzzle: Sensor, turn-off variant 1) | 443 | – | 515 | – | – | – |
| UCGUUCCGUGUAGGAUAUUGGCCUUCCCUGGGCCGAGAAGGACAUGAGGAUCACCCAUGUAUGUUAUUAUCGCGCGUGGCGCAU [Design 86] (Eterna round: R96, puzzle: Exclusion NG 1) | 73.9 | 14.5 | 18.4 | – | – | – |
| UUUAAUUUAAUUAAGAUCACAUGAGGAUCACCCAUGUAAUUAUAGGAUAUCAGCUCGAUUAGAGCUGAGAAGGAUAAUUACAUA [ExNG3/5-A1] (Eterna round: R96, puzzle: Exclusion NG 3) | 105 | 75.1 | 58.1 | – | – | – |
| AGCCAAGCAGGAUAUGCCCGGGAUAACAUGAGGAUCACCCAUGUGACCGAUUGAUGUCCUGCAGAAGGGCUUGGGA [Erxesoan] (Eterna round: R96, puzzle: Exclusion 5) | 82.4 | 11.4 | 16.9 | – | – | – |
